# In IntAct's records for PubMed 35512704:
# B1: Mothers against decapentaplegic homolog 4 (Homo sapiens), Q13485 (parent)
# chain: MDNMSITNTPTSNDACLSIVHSLMCHRQGGESETFAKRAIESLVKKLKEKKDELDSLITAITTNGAHPSKCVTIQRTLDGRLQVAGRKGFPHVIYARLWRWPDLHKNELKHVKYCQYAFDLKCDSVCVNPYHYERVVSPGIDLSGLTLQSNAPSSMMVKDEYVHDFEGQPSLSTEGHSIQTIQHPPSNRASTETYSTPALLAPSESNATSTANFPNIPVASTSQPASILGGSHSEGLLQIASGPQPGQQQNGFTGQPATYHHNSTTTWTGSRTAPYTPNLPHHQNGHLQHHPPMPPHPGHYWPVHNELAFQPPISNHPAPEYWCSIAYFEMDVQVGETFKVPSSCPIVTVDGYVDPSGGDRFCLGQLSNVHRTEAIERARLHIGKGVQLECKGEGDVWVRCLSDHAVFVQSYYLDREAGRAPGDAVHKIYPSAYIKVFDLRQCHRQMQQQAATAQAAAAAQAAAVAGNIPGPGSVGGIAPAISLSAAAGIGVDDLRRLCILRMSFVKGWGPDYPRQSIKETPCWIEIHLHRALQLLDEVLHTMPIADPQPLD
# partner: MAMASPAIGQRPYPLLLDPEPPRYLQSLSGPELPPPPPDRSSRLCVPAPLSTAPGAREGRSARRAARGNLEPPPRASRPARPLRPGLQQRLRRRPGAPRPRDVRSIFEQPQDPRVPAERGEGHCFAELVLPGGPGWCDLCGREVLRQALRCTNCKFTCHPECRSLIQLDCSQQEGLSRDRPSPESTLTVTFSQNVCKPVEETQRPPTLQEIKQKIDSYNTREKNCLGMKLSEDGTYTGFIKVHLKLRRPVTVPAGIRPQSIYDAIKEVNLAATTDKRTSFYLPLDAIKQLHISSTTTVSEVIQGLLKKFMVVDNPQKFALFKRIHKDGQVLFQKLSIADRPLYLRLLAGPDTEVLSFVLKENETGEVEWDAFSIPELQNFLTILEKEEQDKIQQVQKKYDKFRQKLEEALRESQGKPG
# B2: Mothers against decapentaplegic homolog 4 (Homo sapiens), Q13485 (parent)
# chain: B1 chain
# partner: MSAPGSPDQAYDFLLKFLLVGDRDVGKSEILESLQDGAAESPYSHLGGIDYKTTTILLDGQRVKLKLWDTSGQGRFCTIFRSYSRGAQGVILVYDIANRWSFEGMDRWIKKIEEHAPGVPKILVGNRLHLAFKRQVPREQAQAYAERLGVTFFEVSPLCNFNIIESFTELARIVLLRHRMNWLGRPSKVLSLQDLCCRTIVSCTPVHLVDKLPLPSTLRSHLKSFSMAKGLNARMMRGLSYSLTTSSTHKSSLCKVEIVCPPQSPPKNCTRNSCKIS
# B3: Mothers against decapentaplegic homolog 4 (Homo sapiens), Q13485 (parent)
# chain: B1 chain
# partner: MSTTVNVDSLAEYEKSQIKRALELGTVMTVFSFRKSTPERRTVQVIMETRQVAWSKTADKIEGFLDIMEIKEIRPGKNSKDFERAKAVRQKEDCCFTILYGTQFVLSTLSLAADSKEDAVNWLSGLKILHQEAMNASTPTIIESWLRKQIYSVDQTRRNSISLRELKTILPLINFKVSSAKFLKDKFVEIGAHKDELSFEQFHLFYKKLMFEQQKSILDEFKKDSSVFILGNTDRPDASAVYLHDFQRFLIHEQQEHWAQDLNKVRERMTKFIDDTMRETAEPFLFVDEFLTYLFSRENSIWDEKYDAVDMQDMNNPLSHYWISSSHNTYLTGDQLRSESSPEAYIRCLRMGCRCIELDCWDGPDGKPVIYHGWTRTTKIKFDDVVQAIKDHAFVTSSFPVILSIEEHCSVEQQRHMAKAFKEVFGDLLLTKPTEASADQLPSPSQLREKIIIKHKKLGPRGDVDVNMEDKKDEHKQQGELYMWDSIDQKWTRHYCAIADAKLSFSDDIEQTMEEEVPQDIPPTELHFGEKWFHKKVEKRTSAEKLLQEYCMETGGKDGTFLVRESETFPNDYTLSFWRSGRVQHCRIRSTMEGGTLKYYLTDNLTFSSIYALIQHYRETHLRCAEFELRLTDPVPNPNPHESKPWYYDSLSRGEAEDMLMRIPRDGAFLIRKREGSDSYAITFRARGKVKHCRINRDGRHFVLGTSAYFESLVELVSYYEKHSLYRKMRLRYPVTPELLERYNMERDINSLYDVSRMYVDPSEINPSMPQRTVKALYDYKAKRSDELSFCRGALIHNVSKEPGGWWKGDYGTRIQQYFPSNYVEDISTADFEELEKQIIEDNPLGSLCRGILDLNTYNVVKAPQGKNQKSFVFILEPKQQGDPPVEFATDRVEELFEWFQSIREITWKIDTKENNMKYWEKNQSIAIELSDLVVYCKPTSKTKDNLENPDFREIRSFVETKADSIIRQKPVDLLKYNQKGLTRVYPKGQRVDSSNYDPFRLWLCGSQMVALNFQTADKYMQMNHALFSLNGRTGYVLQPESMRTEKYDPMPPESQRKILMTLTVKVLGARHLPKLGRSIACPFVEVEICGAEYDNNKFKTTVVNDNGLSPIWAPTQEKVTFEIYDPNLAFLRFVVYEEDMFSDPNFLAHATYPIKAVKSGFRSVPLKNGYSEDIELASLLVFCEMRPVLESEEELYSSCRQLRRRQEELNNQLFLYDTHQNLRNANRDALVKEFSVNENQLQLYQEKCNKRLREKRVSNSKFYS
# B4: Mothers against decapentaplegic homolog 4 (Homo sapiens), Q13485 (parent)
# chain: B1 chain
# partner: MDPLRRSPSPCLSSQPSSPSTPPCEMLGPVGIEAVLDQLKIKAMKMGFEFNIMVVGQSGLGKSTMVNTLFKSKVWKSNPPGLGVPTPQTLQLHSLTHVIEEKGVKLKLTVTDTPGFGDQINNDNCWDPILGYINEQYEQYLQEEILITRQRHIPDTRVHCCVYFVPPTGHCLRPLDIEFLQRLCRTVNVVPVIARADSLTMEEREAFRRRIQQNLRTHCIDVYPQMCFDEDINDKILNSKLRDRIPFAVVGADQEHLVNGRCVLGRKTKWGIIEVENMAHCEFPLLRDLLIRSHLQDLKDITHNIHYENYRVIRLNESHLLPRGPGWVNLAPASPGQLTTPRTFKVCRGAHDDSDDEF
# B5: Mothers against decapentaplegic homolog 4 (Homo sapiens), Q13485 (parent)
# chain: B1 chain
# partner: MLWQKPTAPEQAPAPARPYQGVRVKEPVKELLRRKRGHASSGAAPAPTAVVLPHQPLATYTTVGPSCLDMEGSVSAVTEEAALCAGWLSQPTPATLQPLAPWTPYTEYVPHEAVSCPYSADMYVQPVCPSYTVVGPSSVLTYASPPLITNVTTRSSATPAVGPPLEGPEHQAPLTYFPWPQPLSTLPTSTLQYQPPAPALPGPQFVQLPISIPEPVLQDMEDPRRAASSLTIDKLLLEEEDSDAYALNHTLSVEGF
# B6: Mothers against decapentaplegic homolog 4 (Homo sapiens), Q13485 (parent)
# chain: B1 chain
# partner: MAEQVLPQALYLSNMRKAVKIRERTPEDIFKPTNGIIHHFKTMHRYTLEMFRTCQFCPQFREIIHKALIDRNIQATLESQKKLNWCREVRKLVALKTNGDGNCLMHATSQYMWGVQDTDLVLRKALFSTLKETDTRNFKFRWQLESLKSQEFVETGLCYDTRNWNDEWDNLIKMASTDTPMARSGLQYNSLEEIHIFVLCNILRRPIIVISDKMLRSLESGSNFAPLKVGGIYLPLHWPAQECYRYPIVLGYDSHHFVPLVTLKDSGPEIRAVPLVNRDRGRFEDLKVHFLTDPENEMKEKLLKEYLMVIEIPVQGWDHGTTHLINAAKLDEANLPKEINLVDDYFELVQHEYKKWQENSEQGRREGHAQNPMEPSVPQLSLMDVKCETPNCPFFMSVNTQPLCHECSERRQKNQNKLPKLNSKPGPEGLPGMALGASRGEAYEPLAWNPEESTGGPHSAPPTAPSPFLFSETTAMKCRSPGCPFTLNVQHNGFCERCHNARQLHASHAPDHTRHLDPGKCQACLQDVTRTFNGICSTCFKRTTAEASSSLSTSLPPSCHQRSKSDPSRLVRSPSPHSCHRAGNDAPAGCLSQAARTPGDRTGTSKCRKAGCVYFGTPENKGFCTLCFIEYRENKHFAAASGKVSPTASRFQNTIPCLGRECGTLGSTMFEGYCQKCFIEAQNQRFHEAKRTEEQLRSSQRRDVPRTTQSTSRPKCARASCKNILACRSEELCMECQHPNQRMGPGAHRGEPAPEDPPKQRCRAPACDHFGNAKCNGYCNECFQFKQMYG
# B7: Mothers against decapentaplegic homolog 4 (Homo sapiens), Q13485 (parent)
# chain: B1 chain
# partner: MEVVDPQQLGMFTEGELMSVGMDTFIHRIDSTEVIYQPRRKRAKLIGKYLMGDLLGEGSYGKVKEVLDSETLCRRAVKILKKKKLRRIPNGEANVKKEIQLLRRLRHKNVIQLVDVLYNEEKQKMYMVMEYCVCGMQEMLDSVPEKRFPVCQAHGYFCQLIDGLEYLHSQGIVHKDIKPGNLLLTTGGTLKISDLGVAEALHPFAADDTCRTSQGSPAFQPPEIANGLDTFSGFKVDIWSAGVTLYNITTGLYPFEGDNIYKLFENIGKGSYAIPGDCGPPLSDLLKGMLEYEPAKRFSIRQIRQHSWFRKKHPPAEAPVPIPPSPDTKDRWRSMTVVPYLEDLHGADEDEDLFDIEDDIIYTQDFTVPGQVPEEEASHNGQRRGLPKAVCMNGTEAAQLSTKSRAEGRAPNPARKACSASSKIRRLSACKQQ
# Variants of: B1
# Details: with rasf5_human RASSF5, Q8WWW0
row,effect of a mutation on the interaction,Variant
1,with no effect,R361H

# Variants of: B2
# Details: with rb40a_human RAB40A
row,effect of a mutation on the interaction,Variant
1,with no effect,G386D

# Variants of: B3
# Details: with plcg2_human PLCG2, P16885
row,effect of a mutation on the interaction,Variant
1,with no effect,R361C

# Variants of: B4
# Details: with sep12_human SEPTIN12, Q8IYM1
row,effect of a mutation on the interaction,Variant
1,with no effect,R361C

# Variants of: B5
# Details: with obf1_human POU2AF1, Q16633
row,effect of a mutation on the interaction,Variant
1,with no effect,G386D

# Variants of: B5
# Details: with obf1_human POU2AF1, Q16633
# Remark: another data set of the same source
row,effect of a mutation on the interaction,Variant
1,increasing interaction strength,G386D

# Variants of: B6
# Details: with tnap3_human TNFAIP3, P21580
row,effect of a mutation on the interaction,Variant
1,with no effect,G386D

# Variants of: B7
# Details: with stk11_human STK11, Q15831
row,effect of a mutation on the interaction,Variant
1,with no effect,G386D
